Data published in US20070104676A1, “Cosmetic and/or dermatological preparations containing an extract from the seeds of plants of the genus adenanthera” (COGNIS FRANCE S.A., priority 2003, published 2007).

Experiments:
[1] = molecular target: pancreas elastase (Sus scrofa, UniProt P00772); test: Inhibition of elastase activity; type: biochemical
Method: In order to test the effectiveness of the plant extract in inhibiting the release of elastase, pancreas elastase (a serine protease) was investigated and, as substrate, elastin was marked with a chromogenic synthetic substrate. The system was incubated with the active principles for 30 minutes at room temperature and then, after centrifuging, the optical density of the dye was determined at 410 nm. The extracts were used in a quantity of 0.3% by weight. The results are set out in Table 1 where they are expressed relative to a control as standard (=0%); a1-antitrypsin was used as the standard.

[2] = molecular target: T1, Human plasmin (Homo sapiens, UniProt P00747); test: Inhibition of plasmin activity (quenched fluorescent casein hydrolysis); type: biochemical; conditions: reference substance
T1 construct: purchased Sigma
Method: Method: Human plasmin obtained from Sigma was mixed with the extract in a quantity of 0.3% by weight and incubated for a few minutes at 20° C. Natural casein marked with a quenched fluorescence probe (Interchim natural) was then added. The protease-catalyzed hydrolysis degraded the quenching and produced a fluorescence signal. The proportion of hydrolyzed substrate was determined by measuring the increased green fluorescence over a period of 30 minutes. […] The inhibition of enzyme activity was evaluated by comparison with a control and a reference substance SBT1 (Sigma).

T1 sequence (P00747 581-810 limits assumed): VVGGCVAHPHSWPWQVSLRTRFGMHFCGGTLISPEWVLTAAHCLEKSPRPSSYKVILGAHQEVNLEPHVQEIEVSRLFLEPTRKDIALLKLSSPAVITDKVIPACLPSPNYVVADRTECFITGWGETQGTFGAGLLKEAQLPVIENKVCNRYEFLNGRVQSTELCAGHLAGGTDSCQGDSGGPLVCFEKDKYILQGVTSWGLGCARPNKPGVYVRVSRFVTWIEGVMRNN
T1 sequence (P00747 97-580 partner limits assumed): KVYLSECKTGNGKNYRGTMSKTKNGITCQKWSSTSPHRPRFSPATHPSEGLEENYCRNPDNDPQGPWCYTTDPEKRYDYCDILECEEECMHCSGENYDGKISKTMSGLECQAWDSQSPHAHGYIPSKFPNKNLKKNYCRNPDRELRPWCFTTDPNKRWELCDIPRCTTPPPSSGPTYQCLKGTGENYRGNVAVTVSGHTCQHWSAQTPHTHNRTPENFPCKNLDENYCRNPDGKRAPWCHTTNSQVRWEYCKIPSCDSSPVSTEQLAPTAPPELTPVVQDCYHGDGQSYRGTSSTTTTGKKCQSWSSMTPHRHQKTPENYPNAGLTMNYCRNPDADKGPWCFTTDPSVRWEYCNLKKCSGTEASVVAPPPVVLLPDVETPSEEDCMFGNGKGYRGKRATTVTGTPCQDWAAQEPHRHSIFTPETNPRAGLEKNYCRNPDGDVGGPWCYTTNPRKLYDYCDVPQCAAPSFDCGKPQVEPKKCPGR
Sequence of pancreas elastase (P00772 27-266): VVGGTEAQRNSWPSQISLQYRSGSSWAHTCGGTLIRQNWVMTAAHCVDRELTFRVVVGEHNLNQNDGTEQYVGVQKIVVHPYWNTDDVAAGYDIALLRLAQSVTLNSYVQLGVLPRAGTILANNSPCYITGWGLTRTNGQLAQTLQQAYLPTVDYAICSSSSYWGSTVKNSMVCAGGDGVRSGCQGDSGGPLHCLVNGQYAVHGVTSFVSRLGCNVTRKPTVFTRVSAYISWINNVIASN

IC50 (elastase inhibition, standard) [1] | IC50 (plasmin inhibition, standard) [2] [%] | Molecule
IC50 = 0.13 mg/ml |  | α1-anti-trypsin: Standard used in the elastase inhibition test
 | 0.006 | SBTI: Reference substance (Sigma) in the plasmin inhibition test (protein, UniProt P01070 25-205, looked up) Trypsin inhibitor A: DFVLDNEGNPLENGGTYYILSDITAFGGIRAAPTGNERCPLTVVQSRNELDKGIGTIISSPYRIRFIAEGHPLSLKFDSFAVIMLCVGIPTEWSVVEDLPEGPAVKIGENKDAMDGWFRLERVSDDEFNNYKLVFCPQQAEDDKCGDIGISIDHDDGTRRLVVSKNKPLVVQFQKLDKESL
